{
  "source": "patent US20040067882A1",
  "about": "(published 2004)",
  "proteins": {"B1": {"name": "CG57094-02 purified protein (angiopoietin-related protein, ARP, mature region; CHO-K1 stable cell expression, plasmid 1614) (ligand)", "chain": "GPVQSKSPRFASWDEMNVLAHGLLQLGQGLREHAERTRSQLSALERRLSACGSACQGTEGSTDLPLAPESRVDPEVLHSLQTQLKAQNSRIQQLFHKVAQQQRHLEKQHLRIQHLQSQFGLLDHKHLDHEVAKPARRKRLPEMAQPVDPAHNVSRLHRLPRDCQELFQVGERQSGLFEIQPQGSPPFLVNCKMTSDGGWTVIQRRHDGSVDFNRPWEAYKAGFGDPHGEFWLGLEKVHSITGDRNSRLAVQLRDWDGNAELLQFSVHLGGEDTAYSLQLTAPVAGQLGATTVPPSGLSVPFSTWDQDHDLRRDKNCAKSLSGGWWFGTCSHSNLNGQYFRSIPQQRQKLKKGIFWKTWRGRYYPLQATTMLIQPMAAEAAS", "notes": "also called NOV25s; CG57094 variant 02; not shown: C-terminal V5 and His tags from the pEE14.4 Sec vector"}},
  "target": "the molecule itself",
  "assay": "self-association, non-reducing western blot",
  "data": [
    {"protein": "B1", "values": [
      {"measurement": "binding result", "result": "binds"}
    ]}
  ]
}
